Results as given in publication PMC12708450, “Targeting tumor-infiltrating regulatory T cells: combining CD47 and PD-L1 inhibition via a novel aptamer-siRNA chimera”.

Molecular target: PD-L1 (recombinant human) (Homo sapiens, UniProt Q9NZQ7 19-238)
Assay: ELONA; 1:1 hyperbolic fit; ELONA: PD-L1 coated in PBS at 4 C overnight; blocked with PBS, 0.1% Tween 20, 1% BSA; wash PBS, 1 mM MgCl2, 0.1% Tween 20, 0.1% BSA; oligo heated 95 C 10 min then on ice 10 min; binding 45 min at room temperature; pH not stated
Details: protein: recombinant; label: biotin (ELONA)

PD-L1 (recombinant human), sequence (Q9NZQ7 19-238): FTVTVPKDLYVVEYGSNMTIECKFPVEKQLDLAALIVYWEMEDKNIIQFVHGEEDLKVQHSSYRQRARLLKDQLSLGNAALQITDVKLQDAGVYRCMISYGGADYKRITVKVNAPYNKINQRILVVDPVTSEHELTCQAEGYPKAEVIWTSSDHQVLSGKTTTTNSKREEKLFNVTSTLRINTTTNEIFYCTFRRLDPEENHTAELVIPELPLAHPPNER

B1: PD-L1 aptamer (structured_DNA)
DNA: ACCGACCGTGCTGGACTCATCTCGCTTTTTTCACGGTCCACACTACTATGAGCGAGCCTGGCG
Kd: 108 nM
